According to the nanobody polyreactivity screen of Harvey et al. (2022):

Assay: yeast display, Sf9 membrane polyspecificity reagent, FACS + sequencing; frameworks hold sequencing errors
How it was run: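 Nanobodies came from a synthetic yeast display library in Saccharomyces cerevisiae BJ5465, induced with galactose for 36–48 hours and stained for 1 hour at 4 °C with 10% biotinylated, detergent-solubilized Sf9 membrane reagent. Cells were enriched on streptavidin microbeads and then FACS-sorted, with low and high (top ~1%) gates set on anti-HA fluorescence for expression and streptavidin fluorescence for reagent binding. Each polyreactivity label reflects the gate a clone came from. Genes were amplified by colony PCR, sequenced by MiSeq 2 × 250 and filtered by CDR length.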

Row | Sequence | polyreactivity (PSR sort gate)
1 | QVQLVESGGGFVQAGGSLGLSCAASGSIFFVYAMGWYRQAPGKERELVADSTNGGDRNYADSVKGRFTISREHAKNTVYLQMHSLKPEDTAVYDCNARYYGYRSWLEAYNRGDYWGQATQVTVSS | high polyreactivity
2 | QVQLVESGGGLVQAGGSLRLSCAASGFTSWVYAMGWYRPAPGKERELVAAITWSTDDTYYADSVKGRFTISRDNSKNTVYIQINSLKPEDSAVYYCAAQQYTYVETWDGYDYWGQGTQVTVSS | low polyreactivity
3 | QVQLVESGGGLVQAGGSLRLSCAASGSTFSVYGMGWYRQAPGKERELVAAISGSGSRTYYADSVKGRFTISRDNAKNTVYLQMNSLKPEDTAVYYCAAVRRLLQGRTMYYWGQGTQVTVSS | high polyreactivity
4 | QVQLVESGGRLVQAGGSLRLSCAASGRTFTAYTMGGYRQAPGKERELVASNSSGVTYADSVKGRFTISRDNAKNTVYLQMNSLKPEDTAVYYCAARLWYVQGYVPYVHHRFDYWGQGTQVTVSS | low polyreactivity
5 | QDQLVESGGGIVQAGGSLRLSCAASGSTFDFNAMGWYRQAPGKERELVASISWETGGTYADSVKGRFTISRDNGKNTVYLQMKSLNPEDTAVYYCAARPDYFIFEYWGQGTQVTVSS | low polyreactivity
6 | QVQLGESGGGLVQAGGSLRLSCAASGFTFYRYTLGWYRQEPGKERELVAAITWSGGNTYYADSVKGRFTISRDNAKNTVYLQMNSLKPEDTAFYYCAAYKPYSKYNYWGQGTQVTVSS | high polyreactivity
7 | QVQLVESGGGLVQAGGSLRLSCAASGRIICFYPMGWYRQAPGKEREFVAAIRWSGGTTYYADSVKGRFTISRDNAKNNVYLQMNSLKPEDTAVYYCAAGRAVGHSLYSRGYDYWGQGTQVTVSS | low polyreactivity
8 | QVQLVESGGGLVQAGGSLRLSCAASGRIINSNAMGWYRQAPGKERELVAAISTTGGRTYYADSVKGRFTISRDNAKNTVYLQMNSLKPEDTAVYYCNRLYRYLVWPAGEYDYWGQGTQVTVSS | high polyreactivity
9 | QVQLVESGGGLVQAGGSLRLSCAASGRIFQTYDMGWYRQAPGKERELVARIRLSGGSTYYADSVKGRFTISRDNAKNTVYLQMNSLKPEETAVYYCAARYSRALFTDPYYYWGQGTQVTVSS | high polyreactivity
10 | QVQLVESGGGLVQAGGSLRLSCAASGGIFSGNDMGWYRHAPGKESEFVAAISWSGGSTYYADSVKGRFTISRDNAKNTVYLQMNSLKPEDTAVYYCAAAHYFLGPQGASFYYWGQGTQVTVSS | low polyreactivity
11 | QGQLVVSGGGLVQAGGSLRLSCAASGSILTRNAMGWYRQAPGKEMELVAAITGSGGRTYYADSVKGRFTISRDNAKKTFYLQMKSLKPEDTAVYYCATRYGREDYWGQGTQVNVSS | high polyreactivity
12 | QVQLVESGGGLVQAGGSLRLSCAASGRTFYSYAMGWYRQAPGKERELVASISSSGASTYYADSVKGRFTISRDNAKNTVYLQMNSLKPEDTAVYYCNSVWRTSFITIYGFDYWGQGTQVTVSS | high polyreactivity
13 | QVQLVESGGGLVQAGGSLRLSCAASGSTFGGNAMGWYRKAPGKERELVAVISKRGGSTYYADSVKGRFTISRDNAKNTVYLQMNSLKPEDTAVYYCAATYSRYWSPTYDYWGQGTQVTVSS | high polyreactivity
14 | QVQLQESGGGLVQAGGSLRQSYAASGYIFPSLAKGWYRQAPGKEREFVAAIGRGSTNNYADSVKGRFTISRDNAKKTAYQQMNSLKPEDTAVYYCAAAASPLTRHLYWGQGTQVTVSS | low polyreactivity
15 | QVQLVESGGGLVQAGGSLRLSCAASGRTFSGNAMGWYRQAPGKERELVAAITGRGGTTYYADSVKGRFTISRDNAKNTVYLQMNSLKPEDTAVYYCAADTKLSYQWFDYWGQGTQVTVSS | high polyreactivity
16 | QVQLVESGGGLVQAGGSLRISCAASGRIFANYAMGWYRQAPGKEMELVAAITTNGGGTYYADSVKVRFTISRDNAKNTVYLQMKSLIPEDTAVYYCIAVKQRSSIFDYWGQGTQLTVSS | low polyreactivity
17 | QVQLVESGGGLVQAGGSLRLSCAASGSIFYVYAMGWYRQAPGKERELVAAITSGGSTNYADSVKGRFTISRDNAKNTVYLQMNSLKPEDTAVYYCAAAWENIWVWQEYIEYDYWGQGTQVTVSS | low polyreactivity
18 | QGQLVESGGGLVQAGGSLRLSCAASGSTLVYNDMGWYRQAPGKEREFVAAISISGTSTYADSVKGRFTISRDNAKNTVYLQMNSLKPEDTAVYWGQGTQVTVSS | low polyreactivity
19 | QVQLVESGGGLVQEGGSLRLSCAASGSTFKYYAMGWYRQAPGKERELVAAISKGATRTYYADSVKGRFTISRDNAKNTVYLQMNSLKPEDTAVYYCAARGRWNVPARRDYWGQGTQVTVSS | high polyreactivity
20 | QVQLVESGGGLVQAGGSLRLSCAASGRIFNRYVMGWYRQAPGKERELVAAISVRGASTYYADSVKGRFTISRDNAKNTVYLQMNSLKPEDTAVYYCATAGYRLLDYWGEGTQVTVSS | high polyreactivity
21 | QVQLVESGGGLVQAGGSLRLSCAASGLTFLPNAMGWYRQAPGKERELVAAITNGGGTNYADSVKGRFTISRDNAKNTVYLQMNSLKPEDTAVYYCNADSTYFGGHDYWGQGTQVTVSS | low polyreactivity
22 | QVQLVESGGGLVQAGGSLRLSCAASGITFNPYGMGWYRPAPGKERELVADITCGGITDYADCVKGRFTIARDNAKNTVYLHKNSLKPEETAVYYCATGDLFVYYWCYVVRLYDYWGQGTQVTVSS | low polyreactivity

Row | Sequence | polyreactivity (PSR sort gate)
23 | QVQLVESGGGLVQAGGSLRLSCAASGRTSFYNAMGWYRQAPGKERELVAAISYRGTRTYYADSVKGRFTISRDNAKNTVYLQMNSLKPEDTAVYYCAKDSGYYTADDYDYWGQGTQVTVSS | low polyreactivity
24 | QVQLVESGGGLVQAGGSLRLSCAASGFTFYPYAMGWYRQAPGKERELVAGITRGGSTNYADSVKGRFTISRDNAKNTVYLQMNSLKPEDTAVYYCAAKYGPYFRRLDYWGQGTQVTVSS | high polyreactivity
25 | QVQLVESGGGLVQAGGSLRLSCAASGSTLYGNVMGWYRQAPGKERELVATINRGGSTNYADSVKGRFTISRDNAKNTVYLQMNSLKPEDTAVYYCAARGFAWYYLEDYWGQGTQVTVSS | low polyreactivity
26 | QVQLVESGGGLVQAGGSLRLSCAASGRILIVNTMGWYRQAPGKERELVAAISSGGTTYYADSVKGRFTISRDNAKNTVYLQMNSLKPEDTAVYYCAAKRAGAEYDYWGQGTQVTVSS | high polyreactivity
27 | QVQLVESGGGLVQAGGSLRLSCAASGFNFKHYAMGWYRQAPGKERELVATITRGGSTNYADSVKGRFTISRDNAKNTVYLQMNSLKPEDTAVYYCAASDYVRYPFTRGYIYQGSDYWGQGTQVTVSS | low polyreactivity
28 | QVQLVESGGGLVQAGGSLRLSCAASGYTFYVYAMGCYRQAPGKERELVASITSSTSTKYADSVKGRFTISRDNANNTVYLQMNSLKPEDTAVYYCAADSRVPEYRSPKNDYWGQGTQVTVSS | low polyreactivity
29 | QVQLVESGGGLVQAGGSLRLSCAASGSIFRVYAMGWYRQAPGKERELVAAISWGGGTTYYADSVKGRFTISRDNAKNTVYLQMNSLKPEDTAVYYCNKVGVRSGARSIYVVRRYEYWGQGTQVTVSS | high polyreactivity
30 | QVQLVESGGGLVQAGGSLRLSCAASGRTFDYNAMGWYRQAPGKEWELVADIRLISGNTYYADSVKGRFTISRDNAKNTVYLQMNSLKPEETAVYYCAATSDGVPSLYGGMDYRGQGTQVTVSS | low polyreactivity
31 | QVQLVESGGGLVQAGGSLRLSCAASGSTCARNSMGWYRQAPGKERELVAAISYSGGTTYYADSVKGRFTISRDNAKNTVYLQRNSLKPEDTAVSYCAKWEGHGRNPWGAGTEGDYWGQGTQVTVSS | low polyreactivity
32 | QVQLVESGGGLVQAGGSLRLSCAASGSIFGPYAMGGYRQAPGKERELVAAISSGGSTNYADSVKGRFTISRDNAKNTVYLQMNSLKPEDTAVYYCAADRKYFYLWLDQEHRYYWGQGTQVTVSS | low polyreactivity
33 | QVQLVESRGGLVQAGGSLRLSCAASGSIFVWNAKGWYRQAPGKERELVAAINVRSASTFYADSVKGRFTISRDIAKNTVYLQMNSLKPEDTAVYYCATSYTKQGFRYYYWGQGTQVTVSS | high polyreactivity
34 | QVQLVESGGGLVQAGGSLRLSCAASGGIFRANALGWYRQAPGKERELVAAIRYSGGGTYYADSVKGRFTISRDNAKNTVYLQMNSLKPEDTAVYYCAARYRGRGYVAYDYWGQGTQVTVSS | high polyreactivity
35 | QVQLVESGGGLVPAGGSLRLSCPAGGFIFGSNVMGWYRQAPGKEREFVAAITYGGVSTYYADSVKGRFTISRDNAKNTVYLQMNSLKPEDTAVYYCNTDRGKRLGKQASSKRYDYWGQGTQVTVSS | high polyreactivity
36 | QVQLVESGGGLVQAGGSLRLSCAASGSTFRSYAMGWYRQAPGKERELVARISYRTGSTYYADSVKGRFTISRDNAKNTVYLQMNSLKPEDTAVYYCATRGSYVGGLYDYWGQGTQVTVSS | high polyreactivity
37 | QVQLVESGGGLVQAGGSLRLSCAASGSTFGYNAMGCYRQAPGKERELVAAISRSGGRTYYADSVKGRFTISRDNAKNTVYLQMNSLIPEDTAVYYCATYYTNKVPARYYWGQGTQVTVSS | high polyreactivity
38 | QVQRVESGGGLFQAGRSLRLSCAASGSTIRRYAMGWYRQAPGKERELVAAMSRGGNTNYADSVKGRFTISRDNATNTVYLQMNCLKPEDTAVYYCAAKLYGGWYRDFAACGMDYWGQGTQVTVCS | high polyreactivity
39 | QVQLVESGGGLVQAGGSLRLSCAASGIIFYYYGMGWYSQAPGKERELVAAISTGGSTNYADSVKGRFTISRDNAKNTVYLQMNRLKPEDTAVYYCAVTYWWYYGYDYWGQGTQVTVSS | low polyreactivity
40 | QVQLVESGGGLVQAGGSLRLSCAASGSILIWNTMGWYRQAPGKERELVAAISISGGSTYYADSVKGRFTISRDNAKNTVYLQVNSLKPEDTAVYYCAAEVAYYYYSWGTSGYWGQGTQVTVSS | low polyreactivity
41 | QVQLVESGGGLVQAGGSLRLSCAASGSIFRVYAMGRYRQAPGKERELVATISGSAGRTYYADSVKGRFTISRDNAKNTVYLQMNSLKPEDTAVYYCAARWYKEYYWGQGTQVTVSS | high polyreactivity
42 | QVQLVESGGGLVQAGGSLRLSCAASAFTFYYYDMGWYRQAPGKERELVAAIDTSDGSTYYADSVKGRFTISRDNAKNTVYLQMNSLKPEDTAVYYCSAEVDWVPFLLVYWGQGTQVTVSS | low polyreactivity
43 | QVQLVESWGRLVQAGGSLRLSCAASGSTFTGNAMGWYRQAPGKERELVAVISSGASTNYADSVKGRFTISRDNAKNSVSLQMNSLKAEDSAVYYCAADSWDYDSRMDYWGQGTHVTVSS | low polyreactivity
